The values below come from paper PMC6854486.

This data set has as its system RcGTA gp1 (small terminase TerS), MBP fusion (Rhodobacter capsulatus SB1003). As to the kind of experiment: EMSA. Particulars: 25 mM HEPES pH 8.0, 50 mM K-glutamate, 1 mM DTT, 0.05% Triton X-100, 4% glycerol, 1 ug poly(dI-dC), 100 ng DNA in 10 ul, room temperature 30 min; 0.8% agarose ….

rcc01397 flanking amplicon displayed a binding signal (% bound at 40 uM protein) of 87. For rcc01398 flanking amplicon (1.4 kbp), the binding signal (% bound at 40 uM protein) is 87.
